According to the supplement of paper PMC9170038:

Test system: MS2 coat protein
Assay: apparent KD of MS2 coat protein; higher = weaker reporter binding
Conditions: Eterna round: R107
In short: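 Each design's apparent KD comes from the median of binding-curve fits to its normalised clusters. Those clusters carried RNA switches transcribed on-chip from Illumina sequencing clusters. SNAP-549-labelled MS2 coat protein was titrated onto them in twofold steps (0.7 or 1.5 nM to 3 µM; per step 0.8–1.5 h down to 10–20 min). Conditions were 100 mM Tris-HCl pH 7.5, 80 mM KCl, 4 mM MgCl2, without or with constant ligand.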

[1] = input ligand: theophylline 20 uM
[2] = input ligand: tryptophan 2.4 mM
[3] = input ligand: theophylline 2 mM

Sequence	apparent KD of MS2 coat protein (input ligand: arginine 13.2 mM)	apparent KD of MS2 coat protein [1]	apparent KD of MS2 coat protein [2]	apparent KD of MS2 coat protein [3]	apparent KD of MS2 coat protein (input ligand: none)
GGGCGACAUGAGGAUCACCCAUGUGUCGAUACCAGUAUGAAUUUCUACCCUUGGCAGCGACGACACGGUUAUUUGUGCACUUCGA [theeternabot_sameState_MS2_Theo_A_5]	77.5 nM	114 nM	95.6 nM	–	–
ACCGAAAGCUCACAUGAGGAUCACCCAUGUCGAGGACCGGUACGGCCGCCACUCGGCAAAUAUAAGGGUGGACGCGUCUCUGCGU [Soramasoso]	35.4 nM	58.8 nM	–	62.1 nM	–
AUACCUAAUGAGUCGUGUAACUUUUCAGAUACCAGACUUUUCGUUGUCCCUUGGCAGCUGUUUUACAUGAGGAUCACCCAUGUUG [JR_ExcTheophyA_Sub008]	14.9 nM	18.5 nM	14.9 nM	–	–
UUGGUACAUGAGGAUCACCCAUGUACUGAAGGAGCGGGACGAAUCUCAGGUAGGUCGCAGACAUGAGGAUCACCCAUGUAUGGCU [Exclusion Arginine A GF 17]	10.2 nM	14.6 nM	12.3 nM	13.1 nM	12.7 nM
UGUAUGGACUGAAGGAGCGGGUAAUAAACCUGAGGAUCACCCAGGUAAUAGGCGAAAGCCGCCCAGGUAGGUCGCAGUCCAUACU	13.2 nM	13.7 nM	12.5 nM	11.7 nM	13.5 nM
GAGGCACGGUCGGCCGCCACUACAGCAGUGGUCCGCCAAGCGAGGUACAUGAGGAUCACCCAUGUUAGGACCGGGACCUGUUUUU [theeternabot_exclusion_MS2_Trp_B_27]	20.2 nM	24.6 nM	–	25.5 nM	–
AAACGUUGCUCAGAUACCAGACAUGAGGAUCACCCAUGUACCAAGGUAAAGAAAUAACGUGUCCCUUGGCAGCUGAGCAACGAAA [MAT - Exclusion Theophlline B - Mod of Eli - D11]	13.8 nM	13.8 nM	11.1 nM	–	–
AUACAUGAGGAUCACCCAUGUUAUAGUGAAGGAGCGACAUUUAGGUCAGGUAGGUCGCACUAUUGAAUUAUUAUCCUUAUUUCUU [JR_ExcArginiA_Sub020]	16.1 nM	22 nM	15.7 nM	15.5 nM	14 nM
AUACCUAGUGAGUCGUGUUUCUUUUCAGAUACCAGACUUUUCGUUGUCCCUUGGCAGCUGUUUUACAUGAGGAUCACCCAUGUUG [JR_ExcTheophyA_Sub007]	16.1 nM	18.4 nM	15.2 nM	–	–
GGUCGCCUACAUGGGUAGGCGAUUUUGGAAGGAGCGAGCGAGAGCUCAGGUAGGUCGCCAGCACAUGAGGAUCACCCAUGUUUUU [SSArg-A #25 Weakened 1st state]	20.8 nM	20.9 nM	18.7 nM	21.8 nM	16.1 nM
GUUGGAUUUUCGGCCGCCACUGAGAGAGUCAUGUGAACAUGAGGAUCACCCAUGUAAUAUAUAUACAGGACCGGGAGGGUUGUAA [4.L]	35 nM	26.3 nM	13.5 nM	18.6 nM	14.6 nM
AAACAUGAGGAUCACCCAUGUUCUCGUGUCCGAGGACCGGUACGGCCGCCACUCGGUUCUCGCGAGGAUGGUCAAAGACUAUCCA [Omei Trp A SS B v6]	22.9 nM	53.6 nM	29 nM	46.6 nM	45.1 nM
GUACAUGAGGAUCACCCAUGUAUAGUUGAAGGAGCGACCGGUGGGUCAGGUAGGUCGCAGCGCAUGGCGUCCACGCGUGUAUGCC [#1 Exclusion - Arginine A Attempt #29 (Inspired by Pi)]	10.3 nM	17.1 nM	11.9 nM	11.1 nM	12.3 nM
CCUAUGCAGUCGGCCGCCACUGAAAUAAAUUAUAUUACCUCAGAAACAUGAGGAUCACCCAUGUACAGGACCGGGACUGUAUAGG [Ex Tryptophan B 15]	26 nM	44.2 nM	56.3 nM	26.2 nM	35.3 nM
AAUUCAAGGUUCUUGAUGUAUUAUAUAUUUCGAGGACCGGUACGGCCGCCACUCGUUAAUUACAUGAGGAUCACCCAUGUUAGCU [JR_ExcTryptoA_Sub010]	14.2 nM	16 nM	–	17.2 nM	–
UGAUACCAGUCGGCCGCCACUACAUGAGGAUCACCCAUGUAUGGGUCAAUGCUAGAUACUAGCAGUAGGACCGGGACUGGUAUCU	11.4 nM	14.8 nM	–	13.2 nM	–
AUCAUAAUAGACUCGUUAGAUUAUAUGGAACGAGGACCGGUACGGCCGCCACUCGUGAUGUACAUGAGGAUCACCCAUGUUAGCA [JR_SSTryptoA_Sub002]	13.1 nM	17.4 nM	–	17.3 nM	–
AAUACCGGUCCUCGAAGGUGAUCCUCAUAACGAGGACCGGUACGGCCGCCACUCGAUAACAUGAGGAUCACCCAUGUAAUAAUAA [|T'-M'-Trp-Ms2|_Design6]	56.1 nM	175 nM	–	235 nM	–
UGACGAGGCCUGGAUACCAGCGACAUGAGGAUCACCCAUGUAUGAGGAUCAGCCAUGUUAUGCCCUUGGCAGCCACGAAGGUCAG [WQQMULLIN]	21.6 nM	38.2 nM	22.9 nM	220 nM	25.4 nM
ACUGUCUUUGAUGAUAUGUAUGGGUCAUUGCGAGGACCGGUACGGCCGCCACUCGGUCCGCCACAUGAGGAUCACCCAUGUCUAU [theeternabot_exclusion_MS2_Trp_A_37]	56.8 nM	94.6 nM	–	195 nM	–
ACAUUGCGCUCGGCCGCCACUGCCUUAUGAUUAUAAGGAUUAAUGAACAUGAGGAUCACCCAUGUCAGGACCGGGAGCGAACCAU [SSTryp B #6]	11.4 nM	16 nM	–	14.1 nM	–
CCAUAGGGUAAAUACAUAAUCAUAUCUGAAGGAGCGUGGAUAAACACAGGUAGGUCGCAGAAUCACAUGAGGAUCACCCAUGUCU [Same State Arginine A GF11]	24.5 nM	53.5 nM	36.5 nM	52.6 nM	36.1 nM
UUGUUGUUUGGAAGGAGCGUGUAAGAUUAAGAACAUGAGGAUCACCCAUGUUGUAAGGUAGCACAGGUAGGUCGCCGGGUGGUGG [11.T]	19.3 nM	24.4 nM	15.1 nM	17.6 nM	14.4 nM
CAUGGGUGGUAUCACCCAUCCAUAGGUGAUACCAGCAUCGAAAGAUGCCCUUGGCAGCACCAACAUGAGGAUCACCCAUGUAAUA [(M)'-(T)'-(M)''-(T1)-(T2)-(M1)-(M2)_Design2]	48.1 nM	189 nM	354 nM	–	–
UCGCCCGGGUCGGCCGCCACUGAGGUAAUAUGACAUGAGGAUCACCCAUGUUGUCAUGUGGAACAUAGGACCGGGACCCGGGCGA [Exclusion - Tryptophan B Attempt #1 (HarryS)]	9.15 nM	15.1 nM	13.4 nM	15.2 nM	8.61 nM
CUAUGGAUAAGAAGGAGCGUCGAAAAUGGGUAAACAUGAGGAUCACCCAUGUAAAGGGAACGACAGGUAGGUCGCUUAUUUAUAG [AstromonsSSArgB#7]	107 nM	190 nM	192 nM	213 nM	179 nM
